Test results: publication PMC7515728, “YdiV regulates Escherichia coli ferric uptake by manipulating the DNA-binding ability of Fur in a SlyD-dependent manner” (Nucleic Acids Research, 2020)
Positions count from the first letter of the chain named.

Tests used:
[1] = target: Fur in the bacterial two-hybrid plasmid pUT18C-fur (Escherichia coli) (UniProt P0A9A9); test: two-hybrid; bacterial two-hybrid by reconstitution of adenylate cyclase (T18/T25) in E. coli BTH101; LB-X-Gal plates and β-galactosidase assay (Miller method)
[2] = target: the molecule itself; test: SEC; Superdex 200, 10 mM Tris-HCl pH 8.0, 100 mM NaCl, proteins at 100-200 uM, 4°C; 62 kDa and 27 kDa proteins as markers
Fur P18ASlyD = target: T1, Fur P18ASlyD (Escherichia coli, UniProt P0A9A9 1-148, P18A); test: EMSA; 100 uM MnCl2; 30 uM protein; EMSA: 10 mM Tris-HCl pH 7.5, 1 mM MgCl2, 40 mM KCl, 0.1 mg/ml BSA, 5% glycerol, +/-100 uM MnCl2, 25 nM DNA, 37 C 15 min; FP: 10 mM Tris-HCl pH 7.5, 75 mM NaCl; settings: protein: recombinant; tags: N-terminal His (PreScission-cleavable, removed if necessary); chain copies: 2; label: FAM; blunt
T1 sequence: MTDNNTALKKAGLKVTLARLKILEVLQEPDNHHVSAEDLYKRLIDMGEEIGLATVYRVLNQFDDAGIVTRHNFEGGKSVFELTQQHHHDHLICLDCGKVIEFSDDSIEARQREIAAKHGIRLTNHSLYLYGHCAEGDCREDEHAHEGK

Fur P18AYdiV = target: T2, Fur P18AYdiV (Escherichia coli, UniProt P0A9A9 1-148, P18A); test: as above; settings: protein: recombinant; tags: N-terminal His (PreScission-cleavable, removed if necessary); chain copies: 2; label: FAM; blunt
T2 sequence: T1 sequence

Fur P29A = target: T3, Fur P29A (Escherichia coli, UniProt P0A9A9 1-148, P29A); test: as above; settings: protein: recombinant; tags: N-terminal His (PreScission-cleavable, removed if necessary); chain copies: 2; label: FAM; blunt
T3 sequence: T1 sequence with A18P, P29A

Fur P18A = target: T4, Fur P18A (Escherichia coli, UniProt P0A9A9 1-148, P18A); test: as above; settings: protein: recombinant; tags: N-terminal His (PreScission-cleavable, removed if necessary); chain copies: 2; label: FAM; blunt
T4 sequence: T1 sequence

Zn1Fur = target: T5, Zn1Fur (Escherichia coli, UniProt P0A9A9 1-148); test: FP; EDTA-treated Fur, no Mn2+ added; EMSA: 10 mM Tris-HCl pH 7.5, 1 mM MgCl2, 40 mM KCl, 0.1 mg/ml BSA, 5% glycerol, +/-100 uM MnCl2, 25 nM DNA, 37 C 15 min; FP: 10 mM Tris-HCl pH 7.5, 75 mM NaCl; settings: protein: recombinant; tags: N-terminal His (PreScission-cleavable, removed if necessary); chain copies: 2; label: FAM; blunt
T5 sequence: T1 sequence with A18P

## SlyD in the bacterial two-hybrid plasmid pKNT25-slyD (from UniProt P0A9K9 1-196) (natural protein)
[1]
  interaction strength relative to the negative control (β-galactosidase) (times the negative control): 6

## YdiV in the bacterial two-hybrid plasmid pKNT25-ydiV (from UniProt P76204 1-237) (natural protein)
[1]
  interaction strength relative to the negative control (β-galactosidase) (times the negative control): 3

B1: native Fur protein (ferric uptake regulator, overexpressed without YdiV) (natural protein, Escherichia coli, UniProt P0A9A9 1-148, looked up)
chain: T1 sequence with A18P
notes: Ferric uptake regulator Fur, Escherichia coli, from plasmid pGL01fur; In the pull-down for mass spectrometry Fur was held on Ni-NTA by its N-terminal His-tag and then released by PreScission cleavage; printed mass 17 089 Da per monomer; also called Zn1Fe1Fur; source: E. coli BL21 harboring pGL01fur; in lysate on Ni-NTA (pull-down) and purified (Ni-NTA, Superdex 200); not shown: His-tag, …
[2]
  stoichiometry N: 2

B2: Fur^YdiV protein (Fur co-expressed with untagged YdiV) (natural protein, Escherichia coli, UniProt P0A9A9 1-148, looked up)
chain: T1 sequence with A18P
notes: Ferric uptake regulator Fur, Escherichia coli, from plasmid pGL01fur, co-expressed with YdiV; also called Zn1Fe1Fur^YdiV; source: E. coli BL21 harboring pGL01fur and pACYCydiV; in lysate on Ni-NTA (pull-down) and purified (Ni-NTA, Superdex 200); not shown: His-tag, N-terminal, kept
[2]
  stoichiometry N: 2

B3: Fur box DNA (dsDNA)
DNA 1: GATAATGATAATGATAATGATAATGATAATGA
DNA 2: TCATTATCATTATCATTATCATTATCATTATC
Fur P18ASlyD
  binding result: binds
Fur P18AYdiV
  binding result: binds
Fur P29A
  binding result: binds
Fur P18A
  binding result: binds
Zn1Fur
  Kd: 7.2 µM
